Test results published in the supplement of paper PMC9112550, “Optimization of the antimicrobial peptide Bac7 by deep mutational scanning” (BMC Biology, 2022).

Tested on: Escherichia coli TOP10
Test: shrunken log2 fold change of peptide-encoding DNA abundance (4.5 h post-induction vs induction); higher = less antimicrobial activity (less host growth inhibition)
Settings: time post-induction: 4.5 h; library: site-saturation at positions 5, 18, 19, 20
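Also: peptides expressed intracellularly from a pBAD plasmid library in pooled LB shake-flask culture, induced with 0.3% L-arabinose, DNA abundance read by NGS, three biological replicates, DESeq2 with apeglm shrinkage.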

| Sequence | shrunken log2 fold change |
| --- | --- |
| RRIRPRPPRLPRPRPRPRHFPRP | 0.168 |
| RRIRNRPPRLPRPRPRPVTAPRP | -0.248 |
| RRIRVRPPRLPRPRPRPYSAPRP | -0.805 |
| RRIRGRPPRLPRPRPRPHHDPRP | -0.102 |
| RRIRHRPPRLPRPRPRPVNIPRP | -0.459 |
| RRIRQRPPRLPRPRPRPRSFPRP | -0.0281 |
| RRIRIRPPRLPRPRPRPIMIPRP | -0.0324 |
| RRIRKRPPRLPRPRPRPMHGPRP | 0.272 |
| RRIRRRPPRLPRPRPRPEKRPRP | 0.296 |
| RRIRPRPPRLPRPRPRPVCCPRP | 0.122 |
| RRIRMRPPRLPRPRPRPFFSPRP | 0.195 |
| RRIRYRPPRLPRPRPRPSCIPRP | -0.118 |
| RRIRHRPPRLPRPRPRPPMLPRP | 0.0935 |
| RRIRPRPPRLPRPRPRPMAYPRP | -0.126 |
| RRIRKRPPRLPRPRPRPYILPRP | -0.0873 |
| RRIRTRPPRLPRPRPRPLECPRP | -0.0489 |
| RRIRPRPPRLPRPRPRPIWHPRP | -0.0776 |
| RRIRMRPPRLPRPRPRPYTNPRP | -0.165 |
| RRIRVRPPRLPRPRPRPYNEPRP | -0.429 |
| RRIRWRPPRLPRPRPRPDDMPRP | -0.147 |
| RRIRLRPPRLPRPRPRPLFSPRP | -0.588 |
| RRIRRRPPRLPRPRPRPMSGPRP | 0.0609 |
| RRIRMRPPRLPRPRPRPNPMPRP | 0.568 |
| RRIRTRPPRLPRPRPRPFVSPRP | 0.00713 |
| RRIRIRPPRLPRPRPRPNSNPRP | -0.983 |

| Sequence | shrunken log2 fold change |
| --- | --- |
| RRIRYRPPRLPRPRPRPNKGPRP | -0.618 |
| RRIRGRPPRLPRPRPRPESRPRP | 0.831 |
| RRIRERPPRLPRPRPRPWRPPRP | 0.0707 |
| RRIRARPPRLPRPRPRPLSGPRP | 0.334 |
| RRIRCRPPRLPRPRPRPRIFPRP | -0.16 |
| RRIRFRPPRLPRPRPRPHILPRP | -0.345 |
| RRIRIRPPRLPRPRPRPIVVPRP | -0.666 |
| RRIRCRPPRLPRPRPRPAVHPRP | 0.0826 |
| RRIRMRPPRLPRPRPRPVTRPRP | 0.494 |
| RRIRSRPPRLPRPRPRPMHEPRP | -0.271 |
| RRIRTRPPRLPRPRPRPYNHPRP | -0.138 |
| RRIRFRPPRLPRPRPRPTQTPRP | -0.199 |
| RRIRVRPPRLPRPRPRPQYFPRP | -0.19 |
| RRIRARPPRLPRPRPRPYQCPRP | -0.44 |
| RRIRVRPPRLPRPRPRPDNKPRP | -0.581 |
| RRIRGRPPRLPRPRPRPPLGPRP | 0.844 |
| RRIRFRPPRLPRPRPRPIDEPRP | 0.121 |
| RRIRRRPPRLPRPRPRPCIIPRP | -0.474 |
| RRIRARPPRLPRPRPRPELYPRP | 0.428 |
| RRIRTRPPRLPRPRPRPCGTPRP | -0.0194 |
| RRIRGRPPRLPRPRPRPTDQPRP | 0.846 |
| RRIRIRPPRLPRPRPRPMEAPRP | -0.0793 |
| RRIRTRPPRLPRPRPRPPSMPRP | 0.13 |
| RRIRYRPPRLPRPRPRPKMHPRP | -0.561 |
| RRIRRRPPRLPRPRPRPYDKPRP | -0.213 |
